Measured values reported in a protein production outcome set (Wang et al. 2014).

Test: label from the status in PepcDB records

Row | Sequence | protein production
1 | MFVYAYILMLLLTVLMCINLFIDSFKCPVKIRRILRGLVFLIMLRYVTLLIMCLKKSITYIYFMRPIVLLDILYIPLVILIMIFVFTRSAKFNFVYAAISGIIFFSLYIFLNFKILKTANPFYSYSFGYLIDLKSYSVVVAVVKVMVLILMLMLCGYFLRKSNIRRAGFCFLMIVILVMLVENISIIIMPKVMPEYLFGEVLLLICLNYMVRLFKK | failed
2 | MIKVNVMYPYTEGARFDHAYYCDRHMPMVKARLGSACAYYTVEKGLAGSASGAPPAFVAMCAFICDSAENFYAAMYYHGAEILGDIANYTDIAPVLQISEVVVERSDR | not failed
3 | MPIITKNTDTTCQTPPLLSIICPAYNQEAFVAQALDGFLSQQTRFNYEILINDDASTDGTARIIAQYAERHPTIIRAFYQQVNQYSQGLPCVPDLFAEARGRYIAYCEADDYWTDPRKLQLQVDFLESHPDYVITYHDAVAFDENGEYGVQLQGHLRADATALELQQARRLSTLTTCFRNVFSTMPPELNIRVAPLNDMCWWSLLGAHGKGKFMADIKPAAYRLHAGGVFSMRSDKRKLHMNLQTCSSLANYYNLQGNQALYEYFLMQTVCLSLAALTPSHKLQTLWQVASNVVVNLGRRLLPTTGKAHVQ | failed
4 | MGLTKQYLRYVASAVFGVIGSQKGNIVFVTLRGEKGRYVAVPACEHVFIWDLRKGEKILILQGLKQEVTCLCPSPDGLHLAVGYEDGSIRIFSLLSGEGNVTFNGHKAAITTLKYDQLGGRLASGSKDTDIIVWDVINESGLYRLKGHKDAITQALFLREKNLLVTSGKDTMVKWWDLDTQHCFKTMVGHRTEVWGLVLLSEEKRLITGASDSELRVWDIAYLQEIEDPEEPDPKKIKGSSPGIQDTLEAEDGAFETDEAPEDRILSCRKAGSIMREGRDRVVNLAVDKTGRILACHGTDSVLELFCILSKKEIQKKMDKKMKKARKKAKLHSSKGEEEDPEVNVEMSLQDEIQRVTNIKTSAKIKSFDLIHSPHGELKAVFLLQNNLVELYSLNPSLPTPQPVRTSRITIGGHRSDVRTLSFSSDNIAVLSAAADSIKIWNRSTLQCIRTMTCEYALCSFFVPGDRQVVIGTKTGKLQLYDLASGNLLETIDAHDGALWSMSLSPDQRGFVTGGADKSVKFWDFELVKDENSTQKRLSVKQTRTLQLDEDVLCVSYSPNQKLLAVSLLDCTVKIFYVDTLKFFLSLYGHKLPVICMDISHDGALIATGSADRNVKIWGLDFGDCHKSLFAHDDSVMYLQFVPKSHLFFTAGKDHKIKQWDADKFEHIQTLEGHHQEIWCLAVSPSGDYVVSSSHDKSLRLWERTREPLILEEEREMEREAEYEESVAKEDQPAVPGETQGDSYFTGKKTIETVKAAERIMEAIELYREETAKMKEHKAICKAAGKEVPLPSNPILMAYGSISPSAYVLEIFKGIKSSELEESLLVLPFSYVPDILKLFNEFIQLGSDVELICRCLFFLLRIHFGQITSNQMLVPVIEKLRETTISKVSQVRDVIGFNMAGLDYLKRECEAKSEVMFFADATSHLEEKKRKRKKREKLILTLT | failed
5 | MSNEMYYVQASDPAILEKGECGGAVTALFKYLLDKGIVDGVLALKKGVDVYDAIPTFVTSSEDLLSTAGSLHCAPTMWGGIIKEYLQDAKIAVPVKPCDMRAIVELAKRAQINLDNVYMIGLNCGGTVPPKTAMEMIKLFYEVDPKDVVKEEIDKGKFIIVMNDGSHKEVKMHDLEDNGYGRRVNCQRCDEKIPRKADIAAGNWGVIGEDAGKYTFMEVCTEKGKQLLEDAEKDGYIKKKSPNPKGIEIRAKVESSMLKMGEDYKNKWLEEEYPTIEEWNRQWNKCIKCYGCRDVCPVCFCRECALNADYLDSGSIPPNPIMFQGVRMSHMAFSCVNCGQCEDVCPMEIPVARIFHKVQEKTRKELGYRPGVDDEAPPALGGSCPTQ | failed
6 | MPFAIGQRWLSESENALGLGVITALDQRTVTIYFPAADETRIYAMAQAPLSRIVFSKGETLSHQAGWQGEILDVQNMNGLLFYLVKNPQDEDVIVQERDISPIISFSQAKDRLFSAQI | failed
7 | MPEVIFNGPAGRLEGRYQPSKEKSAPIAIILHPHPQFGGTMNNQIVYQLFYLFQKRGFTTLRFNFRSIGRSQGEFDHGAGELSDAASALDWVQSLHPDSKSCWVAGYSFGAWIGMQLLMRRPEIEGFMSIAPQPNTYDFSFLAPCPSSGLIINGDADKVAPEKDVNGLVEKLKTQKGILITHRTLPGANHFFNGKVDELMGECEDYLDRRLNGELVPEPAAKRIR | not failed
8 | MWALLLRFYIALPLSVIVLLVLKTSFPTHKQALHSYFAGSFSLIGSQIFTYAATQYLSSGMIALMFGLAPIMAGLIGRFAFGQHLFKLQWLGMAVAVCGLAIICLNGSNQHVHPFGIVLMLVSVFVYSFSIFWVKKVNAKIQPMAQATGSILVSSILASCLIPFIWQYAPTHLPQAKSLFALIYTVLMASLVAMFCYFKLVQNIKPTTLSLTTVITPMLAMIIGAVLNHEQLSIMVFVGAFIILFGLFLYFYKDIQANRNFAQHIKSK | failed
9 | SAATMKKAAAEDVNVTFEDQQKINKFARNTSRITELKEEIEVKKKQLQNLEDACDDIMLADDDCLMIPYQIGDVFISHSQEETQEMLEEAKKNLQEEIDALESRVESIQRVLADLKVQLYAKFGSNINLEADES | failed
10 | MDISLLKQVVQSTNKIALSTAVNNEADVKIVNFVWYEAQPDTLYFSSVKTSPALKVYDQNPDIAFITIPNDGTAGNPYLRAQHVKLQRSTKTMTDLLPQYLETVPNYQQVWDAIGSTLVVFELKLTDLFVDAGVGGEKQTLTFN | not failed
11 | MAQDIIDGINPTRMELLSLKNRTKLAVKGHGLLKEKRDALIKEFFDILDRVKGVREAAERSLKEANEALLEAQIAMGDLAVRKASLSVKESIDVDIKSRSVMGVSVPVTNVKMEERSIIDRGYSFSDTTIQLDEAAKKFEESIKFLIELGEVEKTIFLLAEEIEATKRRVNALEHIMIPRFENTEKYIDMRLQEMERENFVRLKMIRSTIEKKDNEAKEAAIEEEAAEVEA | failed
12 | TKKDVHDLFLNHVNSNAVKTRKMMGEYIIYYDSVVIGGLYDNRLLVKATKSVRHQLQDNTLVSPYPGAKEMILIPDITEAINLTNLFELIKNDLKN | failed
13 | MAQKENNIIPMIFDEAFYRKMATQKWRQQDYKKAAEYYEKVLELSPKDFDIQQHYAQCLVKLNIGKKAERLFYENIVKDFHVAESFYELSQLNIELNEPNKAFLFGINYVILSEDKDFREMLEKTFEVAYTNEQKIELEAQLFSTQLLFQFLFSQGRLEEARTYILNQSYEIQQHRVIRNLLAMCYLYLGEYDSAKAMFEELLKEDNSDVHALCHYTLLLYNKKETEKYQKYLKILNKVVPLNDDETFKLGIVLSYLKQYRASQNLLYPLYKKGKFVSIQMYNALSFNFYYLGNKDESIEMWNKLTQISKVDVGYAPWVIEESKTVFESRVLPLLLDDNNHYRLYGIFLLHQLNGKEILMTEDIWSILESMNDYEKLYLTYLVQGLTLNKLDFIHRGMQRLYNFKKFKYNTSLFTDWINQAEMIISENVDLVDVDRYVAAFVYLSYRRSSQPLTKRQLMDDFNVSRYKLNKAIEFILSI | failed
14 | MAVEQPTAHAGGQSPAHAGEQSRIHNIGYRNYDGPRLGRAYARRSLYSQSLRGAYGLGRSVKSKVLPMLLFVVMCVPALIMVAVAVATKAKDLPVDYTRYAIIMQAVIGLYVASQAPQSVSRDLRFKTVPLYFSRPIETADYVRAKYAALASAMFILTAAPLLVLYVGALLAKLDFTDQTKGFAQGLVSVALLSLLFAGIGLVISAVTPRRGFGIAAVIAVLTISYGAVSTVQAIADAQNSTSAVPWLGLFSPVTLIDGMQTAFLGASSSFPGEAGPSSAQGVVFLIVVLGLIAGCYGLLMRRYRKVGL | failed
15 | MNPEVTVLMSVYNDKNYLSESIESILNQTFENFEFLIINDASTDGSGELLEEYSKKDKRIRLIHNKNNRGLSYSLAEGVSLAKAPWIARMDADDVSFKDRLAVQMDHVKAHSELDILGSYVIDIDDKGNELEIRKVPTTHKEIANLIWTCPFIHPTVLFKKDSIIKAGSYDRNLRRRQDYDLWFRCLEAKLKFENIDKPLLYYRSTDDYYKKNNFKVQVQQAKMGFAGARRVKAKPIAYIGITVAFIKGILPYHIRKPLSQLLKKVDPRRALEHHHHHH | not failed
16 | MRALRGWPLAWFLLALAFAIRLLSLGSYPLMDTTEARYGEVARKMAELGDWITPWYDVGVPFWGKPPLAFWLSAGGQLLLGANEFASRLPHWLLGVLVLWLVWDWQAREDRRQARIACVLLGSSALFFVASGAVMTDMALALALVLAMRGFWLGLHGAEGIRRREGWLMFLGLGLGLLAKGPLTLILAGLPIGLWALLEWRWRALWRGLPWIRGSLLMLLVAAPWYLLAELKTPGFLEYFLLGEHWQRFVTAGWDGDRYGNAHAYPYGSVWLFLLAAAFPWSLWLPLLLWLGWRQRGEVVDGVASRRRYWLFWGLAPCLFFTFAGNVLWTYVLPGLPALALLAADLLRAPLARSAWLRRGGLACLALTPLLFALFLGSLLLGSRAEQKSTAALLASDAGWRERPLVFWPKRPYSAVFYSGGRAQRAEDSELAGWLRRDALLAIRSRSFGALPDEVRQRLRCRPPVGQYQLCQGVAPPG | failed
17 | AVSGLYSSSDDVIELTPSNFNREVIQSDGLWLVEFYAPWCGHCQRLTPEWKKAATALKDVVKVGAVNADKHQSLGGQYGVQGFPTIKIFGANKNKPEDYQGGRTGEAIVDAALSALR | not failed
18 | MYFDSHLHSEGLGFSELVKLKENGIKEVCSLAFFPVKPKYPQTMIDVFRKLTEFEPLRCEAAGVKMHPAVGIHPRCIPPDYEFVLGYLEEGEWVAFGEIGLELVTDEEIEVLKSQLELAKRMDVPCIIHTPRGNKLKATRKTLEILESLDFPADLAVIDHVNFETLDMVLETEYWIGLTVQPGKLSAEDAARIVAEHGPERFMLNSDAGYRDVEITTVAEAAVKIEEAVGREEMEKVARENARKFLRVLELEHHHHHH | failed
19 | MGSSSRQGWRSVFKDVTQKWDVMTVEEQEKELSLLEEWTERVLEEWSDMHEACMTLRERQQQSSVLEKYPPYVSKGTALYDLEMFPEAAMQFDRELKMQPHMHHPLLHLYAIFANLYGGQRERCKEHCVYVLTTSVDRLVRYFTYMALGTLYMQEGEVEEALTSYEHASKLTFHPDVMYNLGMAYFLQHQYALAIPCFMEVIKDGEEDVDALYFLGCALCESGYVEEGCAKWLEAIQLCPPEKVLLTIGAKLEWYGFHQAAVHCFEQLLQSRQLRHLAKHGIAWNLALQDEREKAIHMLKELIAVPQIREDVRLSIEFLAHCWNDGNLRQLAASIERG | failed
20 | MSNEHTRPPLPPFTRESAIEKVRLAEDGWNTREPEKIALAYTVDTQWRNRAEFANNREEARDFLTRKWKKELDYRLIKELWAFTDNRIAVRYAYEWHDDSGNWFRSYGNENWEFEADGLMHRRFACINDMPIKESERKFHWPLGRRPDDHPGLTELGLLEHHHHHH | failed
21 | MVPSASDAWRTALRDLRETLPERTVQNWLDPIQPLDLSTDEGSPTLTLQVPTPFGIQYLRSRFQRSIRQAVSEAVGEPTDVTYQVAPEEERPDEIATDSGSSGSAPDEPDASSSPQDRPSSAPSSDQAGRSSTSPRPSEPVSSSSPAGREAINQSPSPDASTSGGASSPTGPTTPRPSSPDVADVSDAGRTDDASAPSPPQTDAGSPDERSALYEQAKQHLRPEYTFDEFVEGDGNRLARSAAFAVAQEPGSTNYNPLLVYGGVGLGKTHLAQAVANYALEHNTAERVLYVSSDRFTSQFVQSVRENRIAAFSSYYRQADLLIVDDVQFFGEKEKTQEEFFHIFNDLHQNGKQIFLCADRPPAEIPGIEERLLSRFQWGLSADIQRPDLETRIAILQRKAARQDIAVSPDVLELIAQRIDSNVRQLEGALTRLTALVQLDDRTLDLDTARRFLREHTDEGADALNADDIIEQVAEYFRLEKGDLLSRSRKQTVAQARQIAMYLCRELTDESYDHIGSRFGGRDHSTVIHAYRKIEEDLESDTELQDDISSLQSNLQDRSLSSSL | failed
